Activity (% of cleaved junctions) and activity (% of cloned junctions) data for 16 sequences are collected here from patent publication US5604098.

This data set concerns the target T1, CviJ I restriction endonuclease (Chlorella virus IL-3A (infected Chlorella NC64A)) (UniProt P52283).
T1 sequence: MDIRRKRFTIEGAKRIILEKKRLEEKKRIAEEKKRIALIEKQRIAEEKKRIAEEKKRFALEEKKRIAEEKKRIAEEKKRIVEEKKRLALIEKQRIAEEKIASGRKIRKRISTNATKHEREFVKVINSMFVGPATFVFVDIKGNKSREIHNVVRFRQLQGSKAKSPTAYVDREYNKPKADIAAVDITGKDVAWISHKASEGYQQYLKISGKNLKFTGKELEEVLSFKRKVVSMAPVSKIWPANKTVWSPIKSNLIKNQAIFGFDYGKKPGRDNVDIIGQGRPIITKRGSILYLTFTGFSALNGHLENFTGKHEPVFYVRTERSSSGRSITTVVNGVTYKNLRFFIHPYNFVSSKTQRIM
Kind of data set: cleavage_in_vitro. The following applies: for activity (% of cleaved junctions): CviJ I* complete digest; for activity (% of cloned junctions): CviJ I** partial digest.

In turn, AGCA (double strand) [AGCA site] had an activity (% of cloned junctions) of 1.3. Moreover, where the note is “13 cleaved, 5 not cleaved”, the activity (% of cleaved junctions) is 6.5.

As to AGCC (double strand) [AGCC site], where the note is “23 cleaved, 1 not cleaved”, the activity (% of cleaved junctions) is 11.5. Further, the activity (% of cloned junctions) (Mg, ATP, DTT, 20% DMSO, low salt) was 17.1.

In turn, AGCG (double strand) [AGCG site] gave an activity (% of cloned junctions) of 0. This sequence also registered an activity (% of cleaved junctions) (12 cleaved, 11 not cleaved) of 6.

The sequence AGCT (double strand) [AGCT site] displayed an activity (% of cloned junctions) of 32.9. The sequence further had an activity (% of cleaved junctions) (35 cleaved, 0 not cleaved) of 17.5.

With CGCA (double strand) [CGCA site], the activity (% of cloned junctions) turned out to be 0. This sequence also displayed an activity (% of cleaved junctions) (12 not cleaved) of 0.

In turn, CGCC (double strand) [CGCC site] displayed an activity (% of cloned junctions) of 0. This sequence returned an activity (% of cleaved junctions) (11 cleaved, 4 not cleaved) of 5.5.

With CGCG (double strand) [CGCG site], the activity (% of cloned junctions) was 0. Moreover, the activity (% of cleaved junctions) (27 not cleaved) was 0.

The sequence CGCT (double strand) [CGCT site] registered an activity (% of cloned junctions) of 2.6. Further, the activity (% of cleaved junctions) (17 cleaved, 7 not cleaved) was 8.5.

For GGCA (double strand) [GGCA site], the activity (% of cloned junctions) came to 0. The activity (% of cleaved junctions) (11 cleaved, 3 not cleaved) came to 5.5.

GGCC (double strand) [GGCC site] gave an activity (% of cloned junctions) of 21.1. The sequence further displayed an activity (% of cleaved junctions) (24 cleaved, 1 not cleaved) of 12.

For the sequence GGCG (double strand) [GGCG site], the activity (% of cloned junctions) stood at 5.2. Under “18 cleaved, 8 not cleaved”, this sequence gave an activity (% of cleaved junctions) of 9.

As for GGCT (double strand) [GGCT site], the activity (% of cloned junctions) is 15.8. For the setting “13 cleaved, 0 not cleaved”, this sequence displayed an activity (% of cleaved junctions) of 6.5.

In turn, TGCA (double strand) [TGCA site] returned an activity (% of cloned junctions) of 0. In addition, the activity (% of cleaved junctions) (19 not cleaved) amounted to 0.

As for TGCC (double strand) [TGCC site], the activity (% of cloned junctions) was found to be 2.6. Under “13 cleaved, 10 not cleaved”, this sequence returned an activity (% of cleaved junctions) of 6.5.

As for TGCG (double strand) [TGCG site], the activity (% of cloned junctions) was found to be 0. Moreover, the activity (% of cleaved junctions) (3 not cleaved) is 0.

For the sequence TGCT (double strand) [TGCT site], the activity (% of cloned junctions) worked out at 1.3. In addition, the activity (% of cleaved junctions) (10 cleaved, 5 not cleaved) amounted to 5.
